Key:
Assay in all cases: cell-based or functional assay
[1] = target: Bacillus subtilis XynA wildtype xylanase (SEQ ID No. 1), no modifications (Bacillus subtilis) (UniProt P18429)
[2] = target: Bacillus subtilis xylanase variant G13Y/T110A/Y113D/R122D/K154R/N159D/Q175L (modifications made to SEQ ID No. 1) (Bacillus subtilis) (UniProt P18429)
[3] = target: Bacillus subtilis xylanase variant G13Y/I77L/K99Y/T104W/T110A/Y113D/R122F/K154R/N159D/Q175L (modifications made to SEQ ID No. 1) (Bacillus subtilis) (UniProt P18429)
[4] = target: Bacillus subtilis xylanase variant G13F/Y113D/R122D/Q175L (modifications made to SEQ ID No. 1) (Bacillus subtilis) (UniProt P18429)
[5] = target: Bacillus subtilis xylanase variant G13Y/G34K/T110A/Y113D/R122D/Q175L (modifications made to SEQ ID No. 1) (Bacillus subtilis) (UniProt P18429)
[6] = target: Bacillus subtilis xylanase variant D11F/R122D/T110A (modifications made to SEQ ID No. 1) (Bacillus subtilis) (UniProt P18429)
[7] = target: Bacillus subtilis xylanase variant G13Y/K99Y/T104W/T110A/Y113D/R122F/K154R/N159D/Q175L (modifications made to SEQ ID No. 1) (Bacillus subtilis) (UniProt P18429)
[8] = target: Bacillus subtilis xylanase variant G13Y/I77Y/K99Y/T104W/T110A/Y113D/R122F/K154R/N159D/Q175L (modifications made to SEQ ID No. 1) (Bacillus subtilis) (UniProt P18429)
[9] = target: Bacillus subtilis xylanase variant G13Y/T110A/Y113D/R122D/S162D/Q175L (modifications made to SEQ ID No. 1) (Bacillus subtilis) (UniProt P18429)
[10] = target: Bacillus subtilis xylanase variant G13Y/K99Y/T104W/T110A/Y113D/I118V/R122F/K154R/N159D/Q175L (modifications made to SEQ ID No. 1) (Bacillus subtilis) (UniProt P18429)
[11] = target: Bacillus subtilis xylanase variant G13Y/K99Y/T104W/T110A/Y113D/N114Y/R122F/K154R/N159D/L175K (modifications made to SEQ ID No. 1) (Bacillus subtilis) (UniProt P18429)
[12] = target: Bacillus subtilis xylanase variant G13Y/I77S/K99Y/T104W/T110A/Y113D/R122F/K154R/N159D/Q175L (modifications made to SEQ ID No. 1) (Bacillus subtilis) (UniProt P18429)
[13] = target: Bacillus subtilis xylanase variant G13Y/Y113D/R122F/Q175L (modifications made to SEQ ID No. 1) (Bacillus subtilis) (UniProt P18429)
[14] = target: Bacillus subtilis xylanase variant G13Y/K99Y/T104W/T110A/Y113D/R122F/K154R/N159D/Y166F/Q175L (modifications made to SEQ ID No. 1) (Bacillus subtilis) (UniProt P18429)
[15] = target: Bacillus subtilis xylanase variant G13Y/K99Y/T104W/T110A/Y113D/N114D/R122F/K154R/N159D/Q175L (modifications made to SEQ ID No. 1) (Bacillus subtilis) (UniProt P18429)
[16] = target: Bacillus subtilis xylanase variant G13Y/T110A/Y113D/R122D/Q175L (modifications made to SEQ ID No. 1) (Bacillus subtilis) (UniProt P18429)
[17] = target: Bacillus subtilis xylanase variant G13Y/K99Y/T104W/T110A/Y113D/N114Y/R122F/K154R/N159D/Q175L (modifications made to SEQ ID No. 1) (Bacillus subtilis) (UniProt P18429)
[18] = target: Bacillus subtilis xylanase variant G12F/Y113D/R122D/Q175L (modifications made to SEQ ID No. 1) (Bacillus subtilis) (UniProt P18429)
[19] = target: Bacillus subtilis xylanase variant G13Y/Y113D/R122D/Q175L (modifications made to SEQ ID No. 1) (Bacillus subtilis) (UniProt P18429)
[20] = target: Bacillus subtilis xylanase variant G13Y/I77V/K99Y/T104W/T110A/Y113D/R122F/K154R/N159D/Q175L (modifications made to SEQ ID No. 1) (Bacillus subtilis) (UniProt P18429)
[21] = target: Bacillus subtilis xylanase variant G13Y/K99Y/T104W/T110A/Y113D/R122F/K154R/N159D/Q175K (modifications made to SEQ ID No. 1) (Bacillus subtilis) (UniProt P18429)
[22] = target: Bacillus subtilis xylanase variant D11F/R122D/T110A/Y113A (modifications made to SEQ ID No. 1) (Bacillus subtilis) (UniProt P18429)
[23] = target: Bacillus subtilis xylanase variant G13Y/T110A/Y113D/R122F/Q175L (modifications made to SEQ ID No. 1) (Bacillus subtilis) (UniProt P18429)
[24] = target: Bacillus subtilis xylanase variant G13Y/I15Y/Y113D/R122D/Q175L (modifications made to SEQ ID No. 1) (Bacillus subtilis) (UniProt P18429)
[25] = target: Bacillus subtilis xylanase variant G13Y/K99Y/T104W/T110A/Y113D/N114F/R122F/K154R/N159D/Q175L (modifications made to SEQ ID No. 1) (Bacillus subtilis) (UniProt P18429)
[26] = target: Bacillus subtilis xylanase variant G13Y/T110A/Y113D/R122D/S162E/Q175L (modifications made to SEQ ID No. 1) (Bacillus subtilis) (UniProt P18429)
[27] = target: Bacillus subtilis xylanase variant D11F/R122D/Y113A (modifications made to SEQ ID No. 1) (Bacillus subtilis) (UniProt P18429)
[28] = target: Bacillus subtilis xylanase variant G13Y/K99Y/T104W/Y113D/R122D/Q175L (modifications made to SEQ ID No. 1) (Bacillus subtilis) (UniProt P18429)
[29] = target: Bacillus subtilis xylanase variant G13Y/I77M/K99Y/T104W/T110A/Y113D/R122F/K154R/N159D/Q175L (modifications made to SEQ ID No. 1) (Bacillus subtilis) (UniProt P18429)
[30] = target: Bacillus subtilis xylanase variant BS3 (wildtype with D11F/R122D mutations) (Bacillus subtilis) (UniProt P18429)
[31] = target: Bacillus subtilis xylanase variant D11F/R122D/Q175E (modifications made to SEQ ID No. 1) (Bacillus subtilis) (UniProt P18429)
[32] = target: Bacillus subtilis xylanase variant D11F/R122D/Q175Y/S179Y (modifications made to SEQ ID No. 1) (Bacillus subtilis) (UniProt P18429)
[33] = target: Bacillus subtilis xylanase variant G13Y/K99Y/T104W/T110A/Y113D/N114D/R122F/K154R/N159D/L175K (modifications made to SEQ ID No. 1) (Bacillus subtilis) (UniProt P18429)
[34] = target: Bacillus subtilis xylanase variant G13Y/V81I/K99Y/T104W/T110A/Y113D/R122F/K154R/N159D/Q175L (modifications made to SEQ ID No. 1) (Bacillus subtilis) (UniProt P18429)
[35] = target: Bacillus subtilis xylanase variant G13Y/T110A/Y113D/R122D/W164F/Q175L (modifications made to SEQ ID No. 1) (Bacillus subtilis) (UniProt P18429)

Sequence of crude xylanase inhibitor preparation from wheat (Triticum aestivum) flour, containing both TAXI and XIP (main, form in doubt): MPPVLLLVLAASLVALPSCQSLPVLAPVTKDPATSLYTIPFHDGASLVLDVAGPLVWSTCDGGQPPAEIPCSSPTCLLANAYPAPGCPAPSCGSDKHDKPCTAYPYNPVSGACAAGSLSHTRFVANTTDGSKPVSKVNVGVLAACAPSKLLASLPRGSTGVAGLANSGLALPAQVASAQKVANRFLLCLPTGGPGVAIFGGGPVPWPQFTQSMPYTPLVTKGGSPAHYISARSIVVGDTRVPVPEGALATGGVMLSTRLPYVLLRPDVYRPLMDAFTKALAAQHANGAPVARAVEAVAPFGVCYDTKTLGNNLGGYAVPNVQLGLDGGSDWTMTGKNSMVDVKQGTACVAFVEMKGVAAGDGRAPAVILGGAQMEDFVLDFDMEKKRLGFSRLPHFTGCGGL

## crude xylanase inhibitor preparation from wheat (Triticum aestivum) flour, containing both TAXI and XIP
[1]
  % Activity @ 5.6 XIU/ml (residual xylanase activity): 29%
[2]
  % Activity @ 50 XIU/ml (residual xylanase activity): 32%
[3]
  % Activity @ 50 XIU/ml (residual xylanase activity): 75%
[4]
  % Activity @ 5.6 XIU/ml (residual xylanase activity): 100%
  % Activity @ 33.5 XIU/ml (residual xylanase activity): 90%
[5]
  % Activity @ 50 XIU/ml (residual xylanase activity): 97%
[6]
  % Activity @ 5.6 XIU/ml (residual xylanase activity): 98%
  % Activity @ 33.5 XIU/ml (residual xylanase activity): 100%
[7]
  % Activity @ 50 XIU/ml (residual xylanase activity): 64%
[8]
  % Activity @ 50 XIU/ml (residual xylanase activity): 37%
[9]
  % Activity @ 50 XIU/ml (residual xylanase activity): 40%
[10]
  % Activity @ 50 XIU/ml (residual xylanase activity): 79%
[11]
  % Activity @ 50 XIU/ml (residual xylanase activity): 84%
[12]
  % Activity @ 50 XIU/ml (residual xylanase activity): 20%
[13]
  % Activity @ 50 XIU/ml (residual xylanase activity): 90%
[14]
  % Activity @ 50 XIU/ml (residual xylanase activity): 68%
[15]
  % Activity @ 50 XIU/ml (residual xylanase activity): 79%
[16]
  % Activity @ 33.5 XIU/ml (residual xylanase activity): 50%
[17]
  % Activity @ 50 XIU/ml (residual xylanase activity): 78%
[18]
  % Activity @ 5.6 XIU/ml (residual xylanase activity): 100%
[19]
  % Activity @ 33.5 XIU/ml (residual xylanase activity): 86%
[20]
  % Activity @ 50 XIU/ml (residual xylanase activity): 45%
[21]
  % Activity @ 50 XIU/ml (residual xylanase activity): 72%
[22]
  % Activity @ 5.6 XIU/ml (residual xylanase activity): 99%
[23]
  % Activity @ 50 XIU/ml (residual xylanase activity): 65%
[24]
  % Activity @ 33.5 XIU/ml (residual xylanase activity): 76%
[25]
  % Activity @ 50 XIU/ml (residual xylanase activity): 79%
[26]
  % Activity @ 50 XIU/ml (residual xylanase activity): 44%
[27]
  % Activity @ 5.6 XIU/ml (residual xylanase activity): 100%
[28]
  % Activity @ 33.5 XIU/ml (residual xylanase activity): 80%
[29]
  % Activity @ 50 XIU/ml (residual xylanase activity): 46%
[30]
  % Activity @ 5.6 XIU/ml (residual xylanase activity): 100%
  % Activity @ 33.5 XIU/ml (residual xylanase activity): 100%
  % Activity @ 50 XIU/ml (residual xylanase activity): 95%
[31]
  % Activity @ 5.6 XIU/ml (residual xylanase activity): 100%
[32]
  % Activity @ 5.6 XIU/ml (residual xylanase activity): 100%
[33]
  % Activity @ 50 XIU/ml (residual xylanase activity): 79%
[34]
  % Activity @ 50 XIU/ml (residual xylanase activity): 46%
[35]
  % Activity @ 50 XIU/ml (residual xylanase activity): 29%
